Measurements from doi:10.1101/2024.07.14.603434 (bioRxiv, 2024).

Molecular target: the molecule itself
Experiment: SEC

B1: NagS (SCO4393), N-acetylglucosamine-6-phosphate dehydratase (enzyme, Streptomyces coelicolor, UniProt Q9K3V1 1-251, looked up)
chain: MSDHKPAGQFLDAAIDLLRRVRDEEADSIEAAGTLLADTVQNGGRLFAFGAGHSSLAAQDVVYRAGGLALMNLLTVPGVVGIDVMPATLGSALERVDGLASAVLDSSPLRAGDALVIISLSGRNALPVEMAMHARALGLRVIGVTSVAYASQTTSRHASGTFLKDHCDIVLDSKIAVGDAELTLDTVPAPFAPASTVVTAALMQAVTATAAATLADRGIEPPLLRSGNVDGGHEWNARVLEQYGERIFYRR
In the case of B1, the “stoichiometry N” value is reported as 2.
